Measurements from article PMC11096400 (Scientific Reports, 2024).

Substrate: N[C@@H](CCC(=O)O)C(=O)O
Assay: purified protein
Conditions: 0.1-1.0 mM NADP, 50 mM Tris, pH 7.5, 293 K, 20.0 °C

B1: glutamate dehydrogenase (GDH) (Thermococcus profundus) (protein)
chain: MVEIDPFEMAVKQLERAAQYMDISEEALEWLKKPMRIVEVSVPIEMDDGSVKVFTGFRVQHNWARGPTKGGIRWHPAETLSTVKALATWMTWKVAVVDLPYGGGKGGIIVNPKELSEREQERLARAYIRAVYDVIGPWTDIPAPDVYTNPKIMGWMMDEYETIMRRKGPAFGVITGKPLSIGGSLGRGTATAQGAIFTIREAAKALGIDLKGKKIAVQGYGNAGYYTAKLAKEQLGMTVVAVSDSRGGIYNPDGLDPDEVLKWKREHGSVKDFPGATNITNEELLELEVDVLAPAAIEEVITEKNADNIKAKIVAEVANGPVTPEADDILREKGILQIPDFLCNAGGVTVSYFEWVQNINGYYWTEEEVREKLDKKMTKAFWEVYNTHKDKNIHMRDAAYVVAVSRVYQAMKDRGWVKK
Km: 2380 ± 24 µM | kcat: 2.78 ± 0.00 s⁻¹
